From patent publication US20070254831A1 (published 2007)
Bridge positions count the residues as written; N and C are the ends. Square brackets hold non-standard residues; d marks the D form. Ends that are not written are not given here. Pen = CC(C)(S)[C@H](N)C(=O)O; NMeA = CN[C@@H](C)C(=O)O

B1: Peptide No. 41 (peptide)
peptide: QRF[Pen]TGHFG[dR]LYPCNGP-NH2
modifications: disulfide 4-14; N-terminus assumed
SMILES: CC(C)C[C@@H]1NC(=O)[C@@H](CCCNC(=N)N)NC(=O)CNC(=O)[C@H](Cc2ccccc2)NC(=O)[C@H](Cc2c[nH]cn2)NC(=O)CNC(=O)[C@H]([C@@H](C)O)NC(=O)[C@@H](NC(=O)[C@H](Cc2ccccc2)NC(=O)[C@H](CCCNC(=N)N)NC(=O)[C@@H](N)CCC(N)=O)C(C)(C)SSC[C@@H](C(=O)N[C@@H](CC(N)=O)C(=O)NCC(=O)N2CCC[C@H]2C(N)=O)NC(=O)[C@@H]2CCCN2C(=O)[C@H](Cc2ccc(O)cc2)NC1=O
B2: Peptide No. 259 (peptide)
peptide: RFXTGXFGGLYPC
modifications: not fully specified; Pen at 3; His(Me) (mono-methylated histidine) at 6; disulfide; C-terminal amide
B3: Peptide No. 264 (peptide)
peptide: RFXTGXFGGLYPC
modifications: Pen at 3; 4-PiperidylAla at 6; Sar at 9; NMeLeu at 10; disulfide; C-terminal amide
B4: Peptide No. 268 (peptide)
peptide: RFXTGXFGGLYPC
modifications: Pen at 3; 4-PyridylAla at 6; Sar at 9; NMeLeu at 10; disulfide; C-terminal amide

Target: T1, soluble human FcRn (human, UniProt P55899 24-297; P61769 21-119, biotinylated (Sulfo-NHS-LC-Biotin) in the ELISA; amine-coupled to CM5 chip in SPR)
T1 construct: also called shFcRn; biotinylated shFcRn
Experiment: SPR, pH 6
Description: (§1) The following steps were performed to cross-link soluble human or cynomolgus FcRn to the dextran surface of a CM5 sensor chip (Biacore AB, Uppsala, Sweden) by an amine coupling reaction involving 1-ethyl-(3-dimethylaminopropyl)-carbodiimide hydrochloride (EDC) (Biacore AB, Uppsala, Sweden) and N-hydroxysuccinimide (NHS) (Biacore AB, Uppsala, Sweden) as recommended by Biacore (BIAapplications Handbook, version AB, section 4.2, Biacore AB, Uppsala, Sweden). […] Residual sites on the FcRn flow cell were blocked with 1 M ethanolamine hydrochloride pH 8.5 (Biacore AB, Uppsala, Sweden). A control flow cell was blocked with ethanolamine for reference subtraction. For analysis of the monomeric peptides, FcRn was coated to a final density of 4000-5000 response units (RU). For analysis of the peptide dimers, FcRn was coated to a density of 2000-2500 RU. All SPR measurements were performed using a BIACORE 3000 Instrument (Biacore AB Uppsala, Sweden). For measurements done at either pH 6 or pH 7.4, experiments were performed in 50 mM phosphate, 100 mM sodium chloride, 0.01% surfactant P20 (Biacore AB, Uppsala, Sweden).
(§2) Ten, 2-fold dilutions of the peptide were injected over the FcRn-CM5 chip at a rate of 20 μl/min for 2 min. The peptide was dissociated from the chip for 2.5 minutes with buffer. Any remaining peptide was removed from the chip with a 30 second injection of HBS-P buffer (Biacore AB, Uppsala, Sweden) at a rate of 30 μl/min. Sensorgrams were generated and analyzed using BiaEval software version 3.1 (Biacore AB, Uppsala, Sweden). The equilibrium RU observed for each injection was plotted against concentration. The equilibrium KD values were derived by analysis of the plots using the steady state affinity model included in the BiaEval software.

| Kd | Binder |
| --- | --- |
| 7.7 µM | QAFCTGHFGGLYPCNGP-NH2 (disulfide 4-14 (inferred)) [SEQ ID NO:25] |
| 28 µM | QRACTGHFGGLYPCNGP-NH2 (disulfide 4-14 (inferred)) [SEQ ID NO:26] |
| 4.9 µM | QRFCAGHFGGLYPCNGP-NH2 (disulfide 4-14 (inferred)) [SEQ ID NO:27] |
| 8 µM | QRFCTGHFGGLYPCAGP-NH2 (disulfide 4-14 (inferred)) [SEQ ID NO:36] |

Target: T1, soluble human FcRn
Experiment: SPR, pH 6
Remark: another data set of the same source
Description: as §1, §2

| Kd | Binder |
| --- | --- |
| 2.1 µM | QRFXTGHFGGLYPXNGP (hC at 4; Pen at 14; disulfide; C-terminal amide) [Peptide No. 70] |
| 3.9 µM | QRFCTGHFGGLYPXNGP (hC (L-homocysteine) at 14; disulfide; C-terminal amide) [Peptide No. 27] |
| 0.37 µM | QRFXTGHFGGLYPXNGP (Pen at 4 and 14; disulfide; C-terminal amide) [Peptide No. 34] |
| 3.8 µM | QRFXTGHFGGLYPXNGP (hC at 4 and 14; disulfide; C-terminal amide) [Peptide No. 28] |
| 0.28 µM | QRFXTGHFGPLYPXNGP (Pen at 4 and 14; D-Pro at 10; disulfide; C-terminal amide) [Peptide No. 295] |

Target: T1, soluble human FcRn
Experiment: SPR, pH 6
Remark: another data set of the same source
Description: as §1, §2

| Kd | Binder |
| --- | --- |
| 2 µM | QRFXTGHFGGLYPCNGP (Pen at 4; Sar at 9; disulfide; C-terminal amide) [Peptide No. 111] |
| 92 µM | QRFXTGHFGGLYPCNGP (Pen at 4; NMeTyr at 12; disulfide; C-terminal amide) [Peptide No. 114] |
| 0.031 µM | RFXTGHFGGLYPC (Pen at 3; Sar at 9; NMeLeu at 10; disulfide; C-terminal amide) [Peptide No. 235] |
| 0.086 µM | QRFXTGHFGGLYPCNGP (Pen at 4; NMeLeu at 11; disulfide; C-terminal amide) [Peptide No. 113] |
| 18 µM | QRFC[NMeA]GHFGGLYPCNGP-NH2 (disulfide 4-14 (inferred)) [Peptide No. 196] |

Target: T1, soluble human FcRn
Experiment: SPR, pH 6
Remark: another data set of the same source
Description: as §1, §2

| Kd | Binder |
| --- | --- |
| 0.48 µM | QRFXTGHFGXLYPCNGP (Pen at 4; Aib (aminoisobutyric acid) at 10; disulfide; C-terminal amide) [Peptide No. 46] |
| 0.58 µM | QRFXTGHFDGLYPCNGP (Pen at 4; D-Asp at 9; disulfide; C-terminal amide) [Peptide No. 47] |
| 2 µM | QRFXTGHFGHLYPCNGP (Pen at 4; D-His at 10; disulfide; C-terminal amide) [Peptide No. 42] |
| 0.83 µM | B1 |
| 1.7 µM | QRFXTGHFGFLYPCNGP (Pen at 4; D-Phe at 10; disulfide; C-terminal amide) [Peptide No. 44] |

Target: T1, soluble human FcRn
Experiment: SPR, pH 6
Remark: another data set of the same source
Description: as §1, §2

| Kd | Binder |
| --- | --- |
| 0.031 µM | RFXTGHFGGLYPC (Pen at 3; Sar at 9; NMeLeu at 10; disulfide; C-terminal amide) [Peptide No. 235] |
| 4.8 µM | RFXTGHFTGLYPC (Pen at 3; D-Thr at 8; Sar at 9; NMeLeu at 10; disulfide; C-terminal amide) [Peptide No. 240] |
| 1.1 µM | RFXTGHFSGLYPC (Pen at 3; D-Ser at 8; Sar at 9; NMeLeu at 10; disulfide; C-terminal amide) [Peptide No. 241] |
| 1.4 µM | RFXTGHFFGLYPC (Pen at 3; D-Phe at 8; Sar at 9; NMeLeu at 10; disulfide; C-terminal amide) [Peptide No. 217] |
| 2.1 µM | RFXTGHFNGLYPC (Pen at 3; D-Asn at 8; Sar at 9; NMeLeu at 10; disulfide; C-terminal amide) [Peptide No. 243] |
| 0.58 µM | RFXTGHFEGLYPC (Pen at 3; D-Glu at 8; Sar at 9; NMeLeu at 10; disulfide; C-terminal amide) [Peptide No. 244] |
| 0.47 µM | RFXTGHFLGLYPC (Pen at 3; D-Leu at 8; Sar at 9; NMeLeu at 10; disulfide; C-terminal amide) [Peptide No. 219] |

Target: T1, soluble human FcRn
Experiment: SPR, pH 6
Remark: another data set of the same source
Description: as §1, §2

| Kd | Binder |
| --- | --- |
| 180 µM | QRFXTGHFGGLXPCNGP (Pen at 4; 4-nitro-Phe at 12; disulfide; C-terminal amide) [Peptide No. 68] |
| 72 µM | QRFXTGHFGGLXPCNGP (Pen at 4; pentafluoroPhe at 12; disulfide; C-terminal amide) [Peptide No. 65] |
| 290 µM | QRFXTGHFGGLXPCNGP (Pen at 4; 2-nitro-Tyr at 12; disulfide; C-terminal amide) [Peptide No. 87] |
| 230 µM | QRFCTGHFGGLFPCNGP-NH2 (disulfide 4-14 (inferred)) [Peptide No. 26] |

Target: T1, soluble human FcRn
Experiment: SPR, pH 6
Remark: another data set of the same source
Description: as §1, §2

| Kd | Binder |
| --- | --- |
| 0.14 µM | B2 |
| 0.19 µM | RFXTGXFGGLYPC (Pen at 3; His(Me)2 (di-methylated histidine) at 6; disulfide; C-terminal amide) [Peptide No. 260] |
| 5.2 µM | B3 |
| 0.067 µM | B4 |

Target: T1, soluble human FcRn
Experiment: SPR, pH 7.4
Description: as §1, §2

| Kd | Binder |
| --- | --- |
| 5.3 µM | QRFXTGHFGXLYPCNGP (Pen at 4; Aib (aminoisobutyric acid) at 10; disulfide; C-terminal amide) [Peptide No. 46] |
| 1.1 µM | QRFXTGHFGPLYPCNGP (Pen at 4; D-Pro at 10; disulfide; C-terminal amide) [Peptide No. 40] |
| 4.9 µM | QRFXTGHFDGLYPCNGP (Pen at 4; D-Asp at 9; disulfide; C-terminal amide) [Peptide No. 47] |
| 20 µM | QRFXTGHFGHLYPCNGP (Pen at 4; D-His at 10; disulfide; C-terminal amide) [Peptide No. 42] |
| 8.8 µM | B1 |
| 100 µM | QRFXTGHFGFLYPCNGP (Pen at 4; D-Phe at 10; disulfide; C-terminal amide) [Peptide No. 44] |
| 41 µM | QRFXTGHFGILYPCNGP (Pen at 4; D-Ile at 10; disulfide; C-terminal amide) [Peptide No. 43] |

Target: T1, soluble human FcRn
Experiment: SPR, pH 7.4
Remark: another data set of the same source
Description: as §1, §2

| Kd | Binder |
| --- | --- |
| 0.38 µM | B2 |
| 0.46 µM | RFXTGXFGGLYPC (Pen at 3; His(Me)2 (di-methylated histidine) at 6; disulfide; C-terminal amide) [Peptide No. 260] |
| 6.4 µM | B3 |
| 0.28 µM | B4 |

Target: T1, soluble human FcRn
Experiment: ELISA, competitor human IgG
Description: (§3) The wells were coated with 100 μl/well of 1 μg/ml biotinylated-shFcRn in Buffer A. The plate was sealed and incubated at 37° C. for 2 hours. Afterwards, the plate washed with 200 μl/well of Buffer B (Buffer B: 100 mM MES pH 6, 150 mM NaCl, 0.5% BSA IgG-free (Jackson ImmunoResearch, West Grove, Pa.), 0.05% Tween-20). […] To allow for mixing, the plate was rocked for 2 minutes, sealed and incubated at 37° C. for 2 hours. […] The plate was covered, incubated for 30 minutes at room temperature and washed 4 times with 200 μl/well of ice-cold buffer B. SureBlue TMB substrate solution (100 μl/well, KPL, Gaithersburg, Md.) was added and the plate was allowed to incubate at room temperature until color developed, which took 5 to 10 minutes. Once color developed, 100 μl/well of TMB stop solution (KPL, Gaithersburg, Md.) was added and the absorbance was measured at 450 nm. The data was plotted as absorbance vs. peptide concentration to derive the inhibitory concentration 50% (IC₅₀) values.

| IC50 | Binder |
| --- | --- |
| 23 µM | QAFCTGHFGGLYPCNGP-NH2 (disulfide 4-14 (inferred)) [SEQ ID NO:25] |
| 95 µM | QRACTGHFGGLYPCNGP-NH2 (disulfide 4-14 (inferred)) [SEQ ID NO:26] |
| 30 µM | QRFCAGHFGGLYPCNGP-NH2 (disulfide 4-14 (inferred)) [SEQ ID NO:27] |
| 30 µM | QRFCTGHFGGLYPCAGP-NH2 (disulfide 4-14 (inferred)) [SEQ ID NO:36] |

Target: T1, soluble human FcRn
Experiment: ELISA, competitor human IgG
Remark: another data set of the same source
Description: as §3

| IC50 | Binder |
| --- | --- |
| 21 µM | QRFCTGHFGGLYPXNGP (hC (L-homocysteine) at 14; disulfide; C-terminal amide) [Peptide No. 27] |
| 18 µM | QRFCTGHFGGLYPXNGP (Pen at 14; disulfide; C-terminal amide) [Peptide No. 33] |
| 2 µM | QRFXTGHFGGLYPXNGP (Pen at 4; hC at 14; disulfide; C-terminal amide) [Peptide No. 69] |
| 2 µM | QRFXTGHFGGLYPXNGP (Pen at 4 and 14; disulfide; C-terminal amide) [Peptide No. 34] |
| 20 µM | QRFXTGHFGGLYPXNGP (hC at 4 and 14; disulfide; C-terminal amide) [Peptide No. 28] |
| 1.6 µM | QRFXTGHFGPLYPXNGP (Pen at 4 and 14; D-Pro at 10; disulfide; C-terminal amide) [Peptide No. 295] |
| > 125 µM | QRF[dC]TGHFGGLYPCNGP-NH2 (disulfide 4-14 (inferred)) [Peptide No. 29] |

Target: T1, soluble human FcRn
Experiment: ELISA, competitor human IgG
Remark: another data set of the same source
Description: as §3

| IC50 | Binder |
| --- | --- |
| > 125 µM | QRFXTGHFGGLYPCNGP (Pen at 4; NMeTyr at 12; disulfide; C-terminal amide) [Peptide No. 114] |
| > 125 µM | QRFXTGHFGGLYPCNGP (Pen at 4; Sar at 6; disulfide; C-terminal amide) [Peptide No. 108] |
| 0.9 µM | QRFXTGHFGGLYPCNGP (Pen at 4; Sar at 10; disulfide; C-terminal amide) [Peptide No. 112] |
| 1.6 µM | QRFXTGHFGGLYPCNGP (Pen at 4; NMeLeu at 11; disulfide; C-terminal amide) [Peptide No. 113] |
| 169 µM | QRFC[NMeA]GHFGGLYPCNGP-NH2 (disulfide 4-14 (inferred)) [Peptide No. 196] |

Target: T1, soluble human FcRn
Experiment: ELISA, competitor human IgG
Remark: another data set of the same source
Description: as §3

| IC50 | Binder |
| --- | --- |
| 2.4 µM | QRFXTGHFGXLYPCNGP (Pen at 4; Aib (aminoisobutyric acid) at 10; disulfide; C-terminal amide) [Peptide No. 46] |
| 1.4 µM | QRFXTGHFGPLYPCNGP (Pen at 4; D-Pro at 10; disulfide; C-terminal amide) [Peptide No. 40] |
| 8.1 µM | B1 |
| 18 µM | QRFXTGHFGILYPCNGP (Pen at 4; D-Ile at 10; disulfide; C-terminal amide) [Peptide No. 43] |

Target: T1, soluble human FcRn
Experiment: ELISA, competitor human IgG
Remark: another data set of the same source
Description: as §3

| IC50 | Binder |
| --- | --- |
| 71 µM | RFXTGHFTGLYPC (Pen at 3; D-Thr at 8; Sar at 9; NMeLeu at 10; disulfide; C-terminal amide) [Peptide No. 240] |
| 23 µM | RFXTGHFSGLYPC (Pen at 3; D-Ser at 8; Sar at 9; NMeLeu at 10; disulfide; C-terminal amide) [Peptide No. 241] |
| > 50 µM | RFXTGHFVGLYPC (Pen at 3; D-Val at 8; Sar at 9; NMeLeu at 10; disulfide; C-terminal amide) [Peptide No. 218] |
| 29 µM | RFXTGHFNGLYPC (Pen at 3; D-Asn at 8; Sar at 9; NMeLeu at 10; disulfide; C-terminal amide) [Peptide No. 243] |
| 6.4 µM | RFXTGHFEGLYPC (Pen at 3; D-Glu at 8; Sar at 9; NMeLeu at 10; disulfide; C-terminal amide) [Peptide No. 244] |
| 4 µM | RFXTGHFLGLYPC (Pen at 3; D-Leu at 8; Sar at 9; NMeLeu at 10; disulfide; C-terminal amide) [Peptide No. 219] |

Target: T1, soluble human FcRn
Experiment: ELISA, competitor human IgG
Remark: another data set of the same source

| IC50 | Binder |
| --- | --- |
| 2.9 µM | B2 |
| 4.4 µM | RFXTGXFGGLYPC (Pen at 3; His(Me)2 (di-methylated histidine) at 6; disulfide; C-terminal amide) [Peptide No. 260] |
| 85 µM | B3 |
| 1.3 µM | B4 |
